US20230395187A1 (published 2023)

Molecular target: SARS-CoV-2 spike protein, WT (SARS-CoV-2, UniProt P0DTC2 14-1208)
Experiment: virus-free Luminex binding assay, spike on beads

B1: Imdevimab (RGN87) (antibody, V domains shown)
VH: QVQLVESGGGVVQPGRSLRLSCAASGFTFSNYAMYWVRQAPGKGLEWVAVISYDGSNKYYADSVKGRFTISRDNSKNTLYLQMNSLRTEDTAVYYCASGSDYGDYLLVYWGQGTLVTVSS
VL: QSALTQPASVSGSPGQSITISCTGTSSDVGGYNYVSWYQQHPGKAPKLMIYDVSKRPSGVSNRFSGSKSGNTASLTISGLQSEDEADYYCNSLTSISTWVFGGGTKLTVLG
**Q.** For B1, which EC50 is on record?
**A.** 0.082 µg/mL
